In doi:10.1101/2020.05.15.096610 (bioRxiv, 2020):
Read-outs that look alike come from different tables or passages of the source.

What was measured:
cryo-EM structure [1] = target: the molecule itself; test: cryo-EM structure
cryo-EM structure [2] = target: the molecule itself; test: cryo-EM structure; remark: listed apart in the source

Protein | binding result (cryo-EM structure [1]) | other results
Campylobacter jejuni MotB (natural protein, UniProt Q0PBH3 1-247, looked up) MAKKHKCPECPAGEKWAVPYADFLSLLLALFIALWAISKTNPAKVEALKTEFVKIFDYTSTQTVKEESKTQEKYKGAAKEESDELKSLKQMTMTQQETIKRLQAALDQSDNQVALNLPSKVEFERGSAQIVSADIQDYLKRMAELTTYLPPQAKIEIRGYTDNSDSIIRSYELAYQRAENVLKYFIEGGANLKNISIKSYGLNNPINGNPQTLENNRVEIYFKVDTADTSTQKSVLELINKIGTKAP |  | stoichiometry N (cryo-EM structure [1]): 2
Campylobacter jejuni MotB(Δ41-60) (natural protein, UniProt Q0PBH3 1-247, looked up) MAKKHKCPECPAGEKWAVPYADFLSLLLALFIALWAISKTTQTVKEESKTQEKYKGAAKEESDELKSLKQMTMTQQETIKRLQAALDQSDNQVALNLPSKVEFERGSAQIVSADIQDYLKRMAELTTYLPPQAKIEIRGYTDNSDSIIRSYELAYQRAENVLKYFIEGGANLKNISIKSYGLNNPINGNPQTLENNRVEIYFKVDTADTSTQKSVLELINKIGTKAP | binds | 
Campylobacter jejuni MotB(Δ41-60, D22N) (natural protein, UniProt Q0PBH3 1-247, looked up) MAKKHKCPECPAGEKWAVPYANFLSLLLALFIALWAISKTTQTVKEESKTQEKYKGAAKEESDELKSLKQMTMTQQETIKRLQAALDQSDNQVALNLPSKVEFERGSAQIVSADIQDYLKRMAELTTYLPPQAKIEIRGYTDNSDSIIRSYELAYQRAENVLKYFIEGGANLKNISIKSYGLNNPINGNPQTLENNRVEIYFKVDTADTSTQKSVLELINKIGTKAP | binds | 
Vibrio alginolyticus PomB (natural protein, UniProt O06874 1-315, looked up) MDDEDNKCDCPPPGLPLWMGTFADLMSLLMCFFVLLLSFSEMDVLKFKQIAGSMKFAFGVQNQLEVKDIPKGTSIIAQEFRPGRPEPTPIDVIMQQTMDITQQTLEFHEGESDRAGGTKRDEGKLTGGQSPATSTQNNESAEADMQQQQSKEMSQEMETLMESIKKALEREIEQGAIEVENLGQQIVIRMREKGAFPEGSAFLQPKFRPLVRQIAELVKDVPGIVRVSGHTDNRPLDSELYRSNWDLSSQRAVSVAQEMEKVRGFSHQRLRVRGMADTEPLLPNDSDDNRALNRRVEISIMQGEPLYSEEVPVIQ |  | stoichiometry N (cryo-EM structure [2]): 2
